These are literature values, as cited in PMC9775385.

The term Kd denotes the constant that tells how readily two partners part at equilibrium.

The data set concerns the target Nter-BsRNaseY N-terminal domain (Bacillus subtilis) (UniProt O31774).

Turning to “Nter-BsRNaseY N-terminal domain (from UniProt O31774)”, the equilibrium dissociation constant (Kd) was 1300 nM.
